Measurements from patent US20180355013A1.

Target: NKG2D ligands on NKG2D ligand-expressing cells
Test: summary of the Examples; assay not given

In the case of hNKG2Dx2-hIgG1 (Fc fusion), the fold improved binding avidity against monomeric NKG2D-Fc chimeras is reported as < 100 fold.
